# T1: human macrophage mannose receptor (MMR) (human, UniProt P22897 19-1456)
# T1 sequence (looked up): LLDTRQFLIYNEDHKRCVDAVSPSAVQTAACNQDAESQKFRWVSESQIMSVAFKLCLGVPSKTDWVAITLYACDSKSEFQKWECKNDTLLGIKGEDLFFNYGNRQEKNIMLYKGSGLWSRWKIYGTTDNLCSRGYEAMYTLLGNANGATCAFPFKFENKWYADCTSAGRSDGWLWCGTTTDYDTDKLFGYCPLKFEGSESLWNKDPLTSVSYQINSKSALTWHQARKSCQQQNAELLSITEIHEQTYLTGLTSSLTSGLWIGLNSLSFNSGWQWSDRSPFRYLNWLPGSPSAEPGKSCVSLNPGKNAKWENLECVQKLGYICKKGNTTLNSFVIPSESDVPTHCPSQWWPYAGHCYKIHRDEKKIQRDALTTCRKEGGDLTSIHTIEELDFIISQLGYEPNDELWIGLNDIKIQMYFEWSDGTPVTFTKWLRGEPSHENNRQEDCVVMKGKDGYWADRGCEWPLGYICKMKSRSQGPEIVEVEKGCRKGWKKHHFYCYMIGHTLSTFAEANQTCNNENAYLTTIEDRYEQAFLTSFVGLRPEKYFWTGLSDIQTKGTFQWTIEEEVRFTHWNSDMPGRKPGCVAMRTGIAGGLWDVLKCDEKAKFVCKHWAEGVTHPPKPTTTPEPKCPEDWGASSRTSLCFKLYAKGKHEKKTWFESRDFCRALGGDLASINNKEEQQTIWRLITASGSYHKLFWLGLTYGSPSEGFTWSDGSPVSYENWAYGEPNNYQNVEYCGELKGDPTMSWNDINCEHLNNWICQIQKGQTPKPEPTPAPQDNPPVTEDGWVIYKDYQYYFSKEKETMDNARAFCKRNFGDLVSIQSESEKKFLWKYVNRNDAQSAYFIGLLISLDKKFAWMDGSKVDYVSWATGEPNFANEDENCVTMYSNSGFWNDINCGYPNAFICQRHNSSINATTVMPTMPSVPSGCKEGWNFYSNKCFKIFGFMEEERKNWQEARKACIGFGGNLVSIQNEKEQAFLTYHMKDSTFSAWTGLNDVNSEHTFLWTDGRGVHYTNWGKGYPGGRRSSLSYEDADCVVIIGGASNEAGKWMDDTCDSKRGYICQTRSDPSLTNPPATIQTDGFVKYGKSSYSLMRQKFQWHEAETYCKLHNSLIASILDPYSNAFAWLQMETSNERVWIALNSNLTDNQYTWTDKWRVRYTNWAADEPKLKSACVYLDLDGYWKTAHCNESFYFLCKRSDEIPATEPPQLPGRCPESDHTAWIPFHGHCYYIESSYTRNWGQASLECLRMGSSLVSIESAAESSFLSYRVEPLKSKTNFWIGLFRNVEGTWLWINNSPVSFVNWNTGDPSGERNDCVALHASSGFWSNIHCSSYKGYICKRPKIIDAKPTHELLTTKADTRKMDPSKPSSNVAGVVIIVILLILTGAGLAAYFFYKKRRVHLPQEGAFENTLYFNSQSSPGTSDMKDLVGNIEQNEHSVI
# Biological target: T1, human macrophage mannose receptor (MMR)
# Experiment: cell-based or functional assay
binder,measurement,value
"velaglucerase alfa (enzyme, human, UniProt P04062 40-536, looked up, primarily high-mannose type N-glycans (6-9 mannose units per glycan) at Asn19, Asn59, Asn146, Asn270) ARPCIPKSFGYSSVVCVCNATYCDSFDPPTFPALGTFSRYESTRSGRRMELSMGPIQANHTGTGLLLTLQPEQKFQKVKGFGGAMTDAAALNILALSPPAQNLLLKSYFSEEGIGYNIIRVPMASCDFSIRTYTYADTPDDFQLHNFSLPEEDTKLKIPLIHRALQLAQRPVSLLASPWTSPTWLKTNGAVNGKGSLKGQPGDIYHQTWARYFVKFLDAYAEHKLQFWAVTAENEPSAGLLSGYPFQCLGFTPEHQRDFIARDLGPTLANSTHHNVRLLMLDDQRLLLPHWAKVVLTDPEAAKYVHGIAVHWYLDFLAPAKATLGETHRLFPNTMLFASEACVGSKFWEQSVRLGSWDRGMQYSHSIITNLLYHVVGWTDWNLALNPEGGPNWVRNFVDSPIIVDITKDTFYKQPMFYHLGHFSKFIPEGSQRVGLVASQKNDLDAVALMHPDGSAVVVVLNRSSKDVPLTIKDPAVGFLETISPGYSIHTYLWRRQ",internalization rate in U937 cells relative to imiglucerase (4-MU-glc activity assay),≤ 2.5 fold
